# From patent publication US20030092067A1
# What was measured:
# [1] = molecular target: Abz-Val-Ala-Nle-Ser-Lys-Asp-NH2
# [2] = molecular target: Chex-Val-Ala-Nle-Ser-Tyr(NO2)-NH2
# [3] = molecular target: Bz(2-carboxy)-Val-Ala-Nle-Ser-Tyr(NO2)-NH2
# [4] = molecular target: Abz-Bip-Ala-hLeu-Tyr-Tyr(NO2)-Asp-NH2
# [5] = molecular target: Bz-Val-Ala-Statine-Ser-eAha-NH2
# [6] = molecular target: Abz-Bip-Val-Ala-Nle-Ser-Tyr(NO2)-Asp-NH2
# [7] = molecular target: Abz-Tic-Ala-hLeu-Ser-Tyr(NO2)-Asp-NH2
# [8] = molecular target: Abz-Bip-Ala-hLeu-Thr-Tyr(NO2)-Asp-NH2
# [9] = molecular target: Abz-Val-Ala-Nle-Ser-Tyr-Asp-NH2
# [10] = molecular target: Abz-2Nal-Ala-hLeu-Ser-Tyr(NO2)-Asp-NH2
# [11] = molecular target: Abz-Leu-Ala-hLeu-Ser-Tyr(NO2)-Asp-NH2
# [12] = molecular target: Abz-Cmpi-Nle-Ser-Tyr(NO2)-ASP-NH2
# [13] = molecular target: Abz-Bip-Ala-hLeu-Hyp-Tyr(NO2)-Asp-NH2
# [14] = molecular target: Abz-Bip-Ala-hLeu-Met(O)-Tyr(NO2)-Asp-NH2
# [15] = molecular target: Abz-DVal-Ala-hLeu-Ser-Tyr(NO2)-Asp-NH2
# [16] = molecular target: Abz-Ala-Nle-Ser-Tyr(NO2)-Asp-NH2
# [17] = molecular target: Abz-p.Aba-Nle-Ser-Tyr(NO2)-Asp-NH2
# [18] = molecular target: Abz-ACH-Ala-hLeu-Ser-Tyr(NO2)-Asp-NH2
# [19] = molecular target: Abz-Glu-Val-Ala-Nle-Ser-Tyr(NO2)-Asp-NH2
# [20] = molecular target: Abz-Val-Ala-Thr-Ser-Tyr(NO2)-Asp-NH2
# [21] = molecular target: Abz-Val-Tic-hLeu-Ser-Tyr(NO2)-Asp-NH2
# [22] = molecular target: Abz-Val-Met(O)-hLeu-Ser-Tyr(NO2)-Asp-NH2
# [23] = molecular target: Abz-Val-Lys-hLeu-Ser-Tyr(NO2)-Asp-NH2
# [24] = molecular target: Abz-Val-(NMe)Ala-Nle-Ser-Tyr(NO2)-ASP-NH2
# [25] = molecular target: Piv-Val-Ala-Nle-Ser-Tyr(NO2)-NH2
# [26] = molecular target: H-Val-Ala-Nle-Ser-Tyr(NO2)-NH2
# [27] = molecular target: Abz-Val-ACP-hLeu-Ser-Tyr(NO2)-Asp-NH2
# [28] = molecular target: Abz-Val-Ala-3pyr-Ser-Tyr(NO2)-Asp-NH2
# [29] = molecular target: Abz-Val-3pyr-hLeu-Ser-Tyr(NO2)-Asp-NH2
# [30] = molecular target: Abz-Val-DAla-hLeu-Ser-Tyr(NO2)-Asp-NH2
# [31] = molecular target: Abz-Val-Ala-hLeu-Ser-Tyr(NO2)-Asp-NH2
# [32] = molecular target: Abz-Bip-Ala-hLeu-Asp-Tyr(NO2)-Asp-NH2
# [33] = molecular target: Abz-Lys-Ala-hLeu-Ser-Tyr(NO2)-Asp-NH2
# [34] = molecular target: Abz-Val-Ala-DNle-Ser-Tyr(NO2)-Asp-NH2
# [35] = molecular target: H-Val-Ala-Nle-Ser-TyrNO2-ASp-NH2
# [36] = molecular target: Bz-Val-Ala-Nle-Ser-Tyr(NO2)-NH2
# [37] = molecular target: Abz-Val-Ala-Nle-Ser-Tyr(NO2)-NH2
protein,measurement,setting,value
Der pI (protein) TNACSINGNAPAEIDLRQMRTVTPIRMQGGCGSCWAFSGVAATESAYLAYRNQSLDLAEQELVDCASQHGCHGDTIPRGIEYIQHNGVVQESYYRYVAREQSCRRPNAQRFGISNYCQIYPPNVNKIREALAQTHSAIAVIIGIKDLDAFRHYDGRTIIQRDNGYQPNYHAVNIVGYSNAQGVDYWIVRNSWDTNWGDNGYGYFAANIDLMMIEEYPYVVIL,Measured Km (µM),[1],NM
same,Measured Km (µM),[2],NM^a
same,Measured Km (µM),[3],NM^a
same,cleavage rate (rank order),[3],Bz>n-But>Piv>Bz(2-carboxy)>Abz
same,Measured Km,[4],3 µM
same,Measured Km (µM),[5],NS
same,Measured Km,[6],10 µM
same,Measured Km (µM),[7],NS
same,Measured Km,[8],2.5 µM
same,Measured Km (µM),[9],NM
same,Measured Km,[10],15 µM
same,Measured Km,[11],18 µM
same,Measured Km (µM),[12],NS
same,Measured Km,[13],4 µM
same,Measured Km,[14],5 µM
same,Measured Km (µM),[15],NS
same,Measured Km (µM),[16],NM
same,Measured Km (µM),[17],NS
same,Measured Km (µM),[18],NS
same,Measured Km,[19],20 µM
same,Measured Km,[20],6 µM
same,Measured Km (µM),[21],NS
same,Measured Km,[22],35 µM
same,Measured Km,[23],35 µM
same,Measured Km (µM),[24],NS
same,Measured Km (µM),[25],NM^a
same,cleavage rate (rank order),[25],Bz>n-But>Piv>Bz(2-carboxy)>Abz
same,Measured Km (µM),[26],NS
same,Measured Km (µM),[27],NS
same,Measured Km,[28],10 µM
same,Measured Km (µM),[29],NS
same,Measured Km (µM),[30],NS
same,Measured Km,[31],4 µM
same,Measured Km,[32],5 µM
same,Measured Km,[33],> 15 µM
same,Measured Km (µM),[34],NS
same,Measured Km (µM),[35],NS
same,Measured Km (µM),[36],NM^a
same,cleavage rate (rank order),[36],Bz>n-But>Piv>Bz(2-carboxy)>Abz
same,Measured Km (µM),[37],NM
same,cleavage rate (rank order),[37],Bz>n-But>Piv>Bz(2-carboxy)>Abz
